Drawing on publication PMC9213791, “Small Molecule RPI-194 Stabilizes Activated Troponin to Increase the Calcium Sensitivity of Striated Muscle Contraction” (Frontiers in Physiology, 2022), this text covers Kd for one molecule.

The target of assay [1] is T1, recombinant human aCys-cNTnC (C35S, C84S double mutant), N-terminal regulatory domain of cardiac troponin C (human).
T1 construct: human cardiac/slow skeletal troponin C, N-terminal regulatory domain (cNTnC); Uniformly 15N-labeled for NMR; also called cNTnC domain; isolated cNTnC domain; source: E. coli, expressed and purified as previously described (Cai et al., 2016), lyophilized; 15N-labeled
The assay is described as follows: NMR titration; ssTnI peptide (10 mM stock in d6-DMSO) titrated to 0.5-30 equivalents into 15N-labeled cNTnC (115 µM); 100 mM KCl, 10 mM imidazole, pH ~6.7, 30°C; 2D 1H,15N HSQC; KD from 2D lineshape analysis (TITAN), two-state model; no RPI-194. As to conditions: both partners purified.

In assay [2] the target is T1, recombinant human aCys-cNTnC (C35S, …). The assay is described as follows: NMR titration; ssTnI peptide titrated to 0.1-3 equivalents into 15N-labeled cNTnC·RPI-194 complex (115 µM, 1:1 protein and drug); 100 mM KCl, 10 mM imidazole, pH ~6.7, 30°C; 2D 1H,15N HSQC; KD from TITAN, two-state model. The settings on record: both partners purified.

B1: slow skeletal troponin I switch peptide (ssTnI) (peptide)
chain: RVSADAMLRALLGSKHK
modifications: synthetic peptide; termini not stated. Limits not printed: taken as the ssTnI equivalent (offset -30) of the conventional cTnI switch peptide 147-163, because the paper compares it with the …
Take B1: the dissociation constant Kd (commonly the concentration at which binding is half-saturated) stood at 652 µM in assay [1] and 22 µM in assay [2].
